The numbers were not newly measured in PMC6006206, which cites them from elsewhere.

For the data set, the target named is SufE (UniProt A7ZME4).
Chain of UniProt A7ZME4 (A7ZME4 whole entry): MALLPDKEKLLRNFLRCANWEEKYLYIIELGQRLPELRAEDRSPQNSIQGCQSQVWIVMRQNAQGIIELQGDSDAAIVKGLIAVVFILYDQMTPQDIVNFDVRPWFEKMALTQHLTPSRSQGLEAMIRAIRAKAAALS

As a reminder, the Kd is the free concentration of one partner at which half of the binding sites on the other are occupied at equilibrium, for simple one-to-one binding. As for SufS (from UniProt A7ZME5), the Kd was 360 nM.
